Source: patent publication US20230303623A1, “PEPTIDES AND METHODS OF USE” (REALTA LIFE SCIENCES, INC., priority 2020, published 2023)
Bridges are numbered along the chain shown (N, C = ends). Where no end group is shown, it is not given here. [ ]: non-standard residue; d: D form. R8 = C=CCCCCCC[C@@](C)(N)C(=O)O; S5 = C=CCCC[C@](C)(N)C(=O)O; Sar = CNCC(=O)O

What was measured:
MAC-1 = MAC-1 (Homo sapiens, UniProt P05107+P11215); assay: Peptide binding to immobilized MAC-1 (negative control), ELISA plate-based assay; settings: increasing amounts of peptide; negative control protein
Experimental: (§1) RLS-0134 and RLS-0150 were allowed to bind to immobilized CTLA-4, PD-1, PD-L1 on the surface of the plate. Bound C1q and MAC-1 served as a positive and negative control for peptide binding, respectively. Increasing amounts of peptides were added to the plates followed by a rabbit polyclonal antibody that recognizes the peptides and then a secondary anti-rabbit antibody conjugated with HRP. The plate was then developed by addition of TMB as the substrate for the colorimetric assay.
(§2) The inventors further evaluated if RLS-0134 and RLS-0150 could bind to the well characterized checkpoint inhibitor, cytotoxic T-lymphocyte associated protein 4 (CTLA-4 aka CD152). […] Therefore, the pharmaceutical inhibition of CTLA-4 or its ligand has been considered a promising strategy by many cancer researchers and could be a therapeutic target in cancer immunotherapy. To ascertain the ability of select PIC1 peptides to bind CTLA-4, a binding assay was performed in which these proteins were coated on a microtiter plate followed by incubation with increasing amounts of either RLS-0134 and RLS-0150. Plates coated with PD-1, PD-L1 and C1q served as a positive control for peptide binding whereas MAC-1 served as a negative control for peptide binding.

C1q [1] = target: T1, C1q (Homo sapiens, UniProt P02745+P02746+P02747); assay: Peptide binding to immobilized C1q (positive control), ELISA plate-based assay of Example 3; settings: increasing amounts of peptide; positive control protein
T1 construct: purchased Complement Technology (Tyler, TX)
Experimental: as §1, §2

MPO = target: T2, MPO (Homo sapiens, UniProt P05164); assay: MPO activity assay; type: biochemical; settings: compared to parent peptide
T2 construct: purchased Lee BioSolutions (Maryland Heights, MO)
Experimental: The MPO activity assay was performed as previously described. Briefly, peptides were diluted to 12 mg/ml and serially titrated in a 96 well plate at a volume of 0.02 ml. MPO was diluted to 20 μg/ml and 0.02 ml was added to the titrated peptides. TMB (3,30,5,50-tetramethylbenzidine) (0.1 ml) was added to each well for 2 minutes, followed by 0.1 ml of 2.5 N H2SO4 for another 2 minutes, and then read on a 96 well plate reader (BioTek) at 450 nm.
To ascertain the inhibition of MPO activity by the various peptides, a range of concentrations of the stapled peptides and D-amino acid variants were tested (FIG. 3A-3B) and half-maximal activity levels were calculated from the dose-response curves (FIG. 6A-6C, respectively).

CTLA-4 = target: T3, CTLA-4 (Homo sapiens, UniProt P16410); assay: Peptide binding to immobilized CTLA-4, ELISA plate-based assay; settings: increasing amounts of peptide
T3 sequence (P16410 36-223): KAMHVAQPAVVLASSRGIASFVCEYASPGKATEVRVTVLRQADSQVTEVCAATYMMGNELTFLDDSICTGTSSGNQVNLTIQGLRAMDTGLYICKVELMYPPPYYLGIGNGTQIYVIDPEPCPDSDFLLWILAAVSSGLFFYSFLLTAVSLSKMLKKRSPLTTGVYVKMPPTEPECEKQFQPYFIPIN
Experimental: as §1, §2

PD-L1 = PD-L1 (Homo sapiens, UniProt Q9NZQ7); assay: Peptide binding to immobilized PD-L1, ELISA plate-based assay; settings: increasing amounts of peptide
Experimental: as §1, §2

PD-1 = PD-1 (Homo sapiens, UniProt Q15116); assay: Peptide binding to immobilized PD-1, ELISA plate-based assay; settings: increasing amounts of peptide
Experimental: as §1, §2

[2] = system: antibody-initiated complement activation (lysis of AB human red blood cells by type O serum); assay: ABO incompatibility hemolytic complement assay (CH50-type); type: cell-based; settings: peptides 0.8 mg/ml (~0.5 mM); compared to parent peptide
Experimental: FIG. 1A-1B show PIC1 peptides' inhibition of complement activation in an ABO incompatibility assay. […] Inhibition of ABO incompatibility hemolysis in a CH50-type assay. Peptides are at a final concentration of 0.5 mM. Values are represented as a percent of the positive control, which consists of human 0 sera and AB red blood cells in GVBS^++ buffer. Data are the means of n=3 independent experiments±SEM.
For hemolytic complement assays, human red blood cells (RBCs) from type AB donors were purified, washed, and standardized to 1.0×10^9 cells/ml, as previously described. Human sera from type 0 donors at a 15% final concentration was combined with 0.5 mM of the peptides and the volume was brought up to 0.2 ml with GVBS^++ and 5.0×10^7 RBCs. The samples were incubated for 1 hour at 37° C. and then spun at 3,000 rpm for 5 minutes and the supernatant was collected and read at 412 nm. Values are represented as a percent of the positive control, which consists of human 0 sera and AB red blood cells in GVBS^++ buffer.
To assess the extent to which the peptide variants inhibit antibody-initiated complement activation, an ABO incompatibility ex vivo assay was utilized in which purified erythrocytes from a ‘type AB+’ donor are incubated with sera from a ‘type 0’ subject containing anti-A and anti-B antibodies. Peptides were tested at a concentration of 0.8 mg/ml (˜0.5 mM).

C1q [3] = target: T1, C1q; assay: C1q binding ELISA-type assay; settings: compared to parent peptide
Experimental: The C1q binding assay was performed as previously described. Briefly, an Immunlon-2 HB ELISA plate was coated with 1 μg/ml C1q in bicarbonate buffer overnight at 4° C. The plates were washed with PBS-T (phosphate buffered saline+0.1% Tween) and then blocked with 1% gelatin/PBS for 2 hours at room temperature. After washing, the plates were incubated with the peptides starting at 2.5 mg/ml and then serially diluted in 1% gelatin/PBS for 1 hour at room temperature followed by washing. Plates were then probed with rabbit antibody raised against the lead peptide […] (SEQ ID NO: 2) that lacked PEGylation at 1:1000 in 1% gelatin/PBS for 1 hour at room temperature followed by a goat anti-rabbit HRP (Sigma Aldrich, St Louis, MO) at 1:1,000 in 1% gelatin/PBS for 1 hour at room temperature with a washing step in between. After addition of TMB substrate solution to the wells, the reaction was stopped using 1N H2SO4, and the plate read on a BioTek Synergy HT plate reader at 450 nm.
The astrovirus capsid protein and the PIC1 molecules derived from it inhibit classical complement pathway activation by binding to the pattern recognition molecule C1q. The inventors next tested peptide variant binding to C1q in an ELISA-type assay in which C1q is used as the capture substrate and bound peptide detected with a rabbit polyclonal antibody against the peptide portion of PA-dPEG24 ([…]-d24; SEQ ID NO: 3). Binding curves were derived for the stapled and D-amino acid peptides based on the PA-I8Sar and PA-C9Sar (FIG. 5A-5C) backbone, from which half-maximal binding concentrations were calculated (FIGS. 2A and B, respectively). […] For the peptides based on the PA-C9Sar backbone, C1q was bound to a greater degree than the parent peptide (FIG. 2B).

[4] = Total Antioxidant Capacity (TAC) assay; settings: highest peptide concentration 1.5 mM; compared to parent peptide
Experimental: As previously reported, the TAC (Total Antioxidant Capacity) Assay (Cell Biolabs, Inc, San Diego, CA) was used to measure the antioxidant capacity of the PIC1 variants based on the reduction of copper (II) to copper (I). The kit protocol was performed per the manufacturer's recommendations.
The antioxidant properties for the PIC1 variants were evaluated in a Total Antioxidant Capacity (TAC) assay, as previously reported. Total antioxidant activity over a range of peptide concentrations were determined for the stapled and the D-amino acid peptides based on the PA-I8Sar and PA-C9Sar backbones (FIG. 4A-4B), with the activity of the highest peptide concentration reported (1.5 mM) (FIG. 5A-5C).

T1 sequence (P02745 23-245): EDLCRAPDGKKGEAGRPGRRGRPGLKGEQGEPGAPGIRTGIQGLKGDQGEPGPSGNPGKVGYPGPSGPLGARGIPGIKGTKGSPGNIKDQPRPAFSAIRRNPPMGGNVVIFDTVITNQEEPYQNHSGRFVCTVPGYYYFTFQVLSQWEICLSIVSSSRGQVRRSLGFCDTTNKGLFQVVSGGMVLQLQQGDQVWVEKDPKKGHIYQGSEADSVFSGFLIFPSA
T1 sequence (P02746 28-253): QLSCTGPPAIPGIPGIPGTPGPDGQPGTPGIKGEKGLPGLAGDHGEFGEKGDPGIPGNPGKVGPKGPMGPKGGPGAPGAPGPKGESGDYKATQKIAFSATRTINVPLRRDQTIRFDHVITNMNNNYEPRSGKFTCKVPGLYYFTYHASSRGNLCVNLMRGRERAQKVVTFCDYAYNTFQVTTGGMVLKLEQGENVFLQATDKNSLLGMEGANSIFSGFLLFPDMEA
T1 sequence (P02747 29-245): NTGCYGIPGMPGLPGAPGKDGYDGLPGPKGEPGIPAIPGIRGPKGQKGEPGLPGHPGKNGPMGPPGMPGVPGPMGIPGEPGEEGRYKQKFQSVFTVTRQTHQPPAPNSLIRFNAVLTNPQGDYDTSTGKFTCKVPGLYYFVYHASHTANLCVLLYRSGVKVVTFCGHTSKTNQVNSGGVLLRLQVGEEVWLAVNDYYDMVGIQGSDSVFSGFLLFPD
T2 sequence (P05164 279-745 limits assumed): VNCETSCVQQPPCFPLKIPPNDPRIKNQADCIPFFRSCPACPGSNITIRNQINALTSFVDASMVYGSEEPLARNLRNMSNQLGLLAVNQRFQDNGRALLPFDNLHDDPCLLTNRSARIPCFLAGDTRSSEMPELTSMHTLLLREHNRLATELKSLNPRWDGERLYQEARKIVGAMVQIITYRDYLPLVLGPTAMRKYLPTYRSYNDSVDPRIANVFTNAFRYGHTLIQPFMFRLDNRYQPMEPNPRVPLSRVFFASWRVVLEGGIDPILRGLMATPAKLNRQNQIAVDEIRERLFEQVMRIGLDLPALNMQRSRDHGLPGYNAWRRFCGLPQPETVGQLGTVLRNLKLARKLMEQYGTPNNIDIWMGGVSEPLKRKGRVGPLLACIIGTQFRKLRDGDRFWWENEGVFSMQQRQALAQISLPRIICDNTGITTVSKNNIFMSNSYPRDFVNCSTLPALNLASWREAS
T2 sequence (P05164 165-273 limits assumed): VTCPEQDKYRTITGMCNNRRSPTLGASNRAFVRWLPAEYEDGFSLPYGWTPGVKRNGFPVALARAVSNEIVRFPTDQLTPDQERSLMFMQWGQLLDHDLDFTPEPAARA
Chain of PD-L1 (Q9NZQ7 19-290): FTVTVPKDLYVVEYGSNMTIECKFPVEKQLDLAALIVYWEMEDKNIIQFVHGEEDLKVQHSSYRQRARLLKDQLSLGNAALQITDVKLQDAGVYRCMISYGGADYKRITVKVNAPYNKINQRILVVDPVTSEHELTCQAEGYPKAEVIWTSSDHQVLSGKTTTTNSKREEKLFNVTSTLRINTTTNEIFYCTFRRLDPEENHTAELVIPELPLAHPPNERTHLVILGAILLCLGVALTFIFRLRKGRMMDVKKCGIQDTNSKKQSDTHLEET
Chain of MAC-1 (P05107 23-769, other chains not shown): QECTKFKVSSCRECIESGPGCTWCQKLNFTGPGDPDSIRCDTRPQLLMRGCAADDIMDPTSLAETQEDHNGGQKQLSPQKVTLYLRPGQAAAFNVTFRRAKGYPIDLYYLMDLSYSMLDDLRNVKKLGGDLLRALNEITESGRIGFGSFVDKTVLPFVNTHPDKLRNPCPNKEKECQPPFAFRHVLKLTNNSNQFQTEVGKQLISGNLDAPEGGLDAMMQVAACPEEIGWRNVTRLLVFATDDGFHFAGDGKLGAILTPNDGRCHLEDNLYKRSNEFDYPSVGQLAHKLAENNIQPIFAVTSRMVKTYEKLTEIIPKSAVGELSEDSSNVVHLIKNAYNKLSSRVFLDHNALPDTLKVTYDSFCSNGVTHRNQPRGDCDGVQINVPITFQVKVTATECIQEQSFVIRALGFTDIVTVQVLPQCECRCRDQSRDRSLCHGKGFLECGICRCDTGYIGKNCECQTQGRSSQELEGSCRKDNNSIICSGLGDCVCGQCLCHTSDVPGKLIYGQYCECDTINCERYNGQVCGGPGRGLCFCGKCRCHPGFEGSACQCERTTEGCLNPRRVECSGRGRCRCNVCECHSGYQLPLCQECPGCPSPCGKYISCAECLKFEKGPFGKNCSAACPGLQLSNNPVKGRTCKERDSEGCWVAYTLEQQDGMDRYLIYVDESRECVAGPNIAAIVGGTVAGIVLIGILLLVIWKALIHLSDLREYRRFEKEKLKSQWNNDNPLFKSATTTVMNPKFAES
Chain of PD-1 (Q15116 25-288): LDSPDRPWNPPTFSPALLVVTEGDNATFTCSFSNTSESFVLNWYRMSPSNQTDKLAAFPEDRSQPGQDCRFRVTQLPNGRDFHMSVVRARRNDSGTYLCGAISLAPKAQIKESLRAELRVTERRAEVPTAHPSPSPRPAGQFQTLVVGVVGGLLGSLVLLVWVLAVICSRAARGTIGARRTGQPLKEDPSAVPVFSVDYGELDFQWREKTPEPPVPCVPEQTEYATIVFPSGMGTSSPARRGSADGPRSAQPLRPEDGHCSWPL

Substance: IAR8ILEP(Sar)CS5QERAA (IA[R8]ILEP[Sar]C[S5]QERAA; staple 3-10; not fully specified; printed as IAR8ILEP(Sar)CS5QERAA) [PA-0134]
- binding to MAC-1, in words (MAC-1): minimal binding
- binding to C1q, in words (C1q [1]): dose-dependent binding
- inhibition of MPO activity (half-maximal values), in words (MPO): reduced inhibition of MPO activity
- binding to CTLA-4, in words (CTLA-4): bound CTLA-4
- binding to PD-L1, in words (PD-L1): dose-dependent binding
- binding to PD-1, in words (PD-1): dose-dependent binding
- inhibition of ABO incompatible hemolysis (complement inhibition), in words [2]: similar
- binding to C1q (binding curves, half-maximal binding), in words (C1q [3]): markedly increased binding to C1q
- total antioxidant capacity, in words [4]: decreased activity compared to the parent peptide
